Experiment [1] has as its target T1, human blood protein factor XII (FXII) (human, UniProt P00748 20-615).
T1 sequence (looked up): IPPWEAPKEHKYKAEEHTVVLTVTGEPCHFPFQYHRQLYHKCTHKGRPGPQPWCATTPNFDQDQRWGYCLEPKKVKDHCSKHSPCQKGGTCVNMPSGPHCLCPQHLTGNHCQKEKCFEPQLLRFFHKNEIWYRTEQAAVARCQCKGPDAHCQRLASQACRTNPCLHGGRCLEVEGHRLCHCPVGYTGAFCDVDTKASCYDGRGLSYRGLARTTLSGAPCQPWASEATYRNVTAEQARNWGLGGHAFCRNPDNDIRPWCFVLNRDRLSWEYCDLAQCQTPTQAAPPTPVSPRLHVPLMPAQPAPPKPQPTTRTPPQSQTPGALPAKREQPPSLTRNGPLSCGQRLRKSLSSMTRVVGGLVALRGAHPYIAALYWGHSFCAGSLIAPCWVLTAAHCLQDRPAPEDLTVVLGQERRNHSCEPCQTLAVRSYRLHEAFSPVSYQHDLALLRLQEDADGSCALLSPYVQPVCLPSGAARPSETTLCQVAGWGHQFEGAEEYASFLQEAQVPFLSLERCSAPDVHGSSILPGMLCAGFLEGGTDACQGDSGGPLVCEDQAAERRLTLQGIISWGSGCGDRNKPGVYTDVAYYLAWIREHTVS
The experiment in a line: cell-based or functional assay.

In a further experiment the target is T2, pig FXII (pig, UniProt O97507 20-616).
T2 construct: mature; Plasma protein
T2 sequence (looked up): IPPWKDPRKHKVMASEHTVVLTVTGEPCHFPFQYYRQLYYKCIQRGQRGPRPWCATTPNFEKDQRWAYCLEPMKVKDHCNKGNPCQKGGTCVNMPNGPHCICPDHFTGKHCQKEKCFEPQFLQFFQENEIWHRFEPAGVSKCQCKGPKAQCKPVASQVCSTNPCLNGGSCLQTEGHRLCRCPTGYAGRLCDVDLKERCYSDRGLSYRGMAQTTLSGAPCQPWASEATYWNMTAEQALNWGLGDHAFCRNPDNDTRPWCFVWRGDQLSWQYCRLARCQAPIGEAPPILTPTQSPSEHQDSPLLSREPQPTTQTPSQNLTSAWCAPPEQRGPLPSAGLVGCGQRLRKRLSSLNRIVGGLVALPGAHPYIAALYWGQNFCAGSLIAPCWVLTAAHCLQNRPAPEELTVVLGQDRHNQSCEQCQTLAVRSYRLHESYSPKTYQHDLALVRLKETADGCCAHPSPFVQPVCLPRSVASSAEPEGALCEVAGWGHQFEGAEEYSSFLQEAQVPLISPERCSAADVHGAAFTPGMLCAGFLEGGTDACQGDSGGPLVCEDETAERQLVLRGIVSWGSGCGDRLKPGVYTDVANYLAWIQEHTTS
The experiment in a line: Western blot of platelet-poor plasma; primary antibody murine 5C12. The source says: (§1) FIG. 3A-3C: Species specificity of 5C12. (FIG. 3A) Western blots of platelet poor plasmas from different species (indicated above each lane) size fractionated by SDS-PAGE […]. Species included in alphabetical order: African green monkey, baboon, beagle, cat, cattle, chicken, cynomolgus monkey, dog, elephant, giant anteater, horse, human, human deficient in FXII, llama, marmoset, pig, rabbit, raccoon, rat, red kangaroo, rhesus macaque and tiger. Human plasma and human deficient in FXII plasma were used in all gels as a positive and negative control, respectively. […] 5C12 also recognizes both the alpha (comprising both the light and heavy chain of FXII) and the beta (comprising only the light chain and a nonapeptide fragment of the heavy chain) form of activated FXII (FXIIa) (FIG. 3C). The primary antibody for all Western blots was murine 5C12, the secondary antibody was goat-anti-mouse polyclonal.

Another experiment deals with T3, cattle FXII (cattle, UniProt P98140 20-612).
T3 construct: mature; Plasma protein
T3 sequence (looked up): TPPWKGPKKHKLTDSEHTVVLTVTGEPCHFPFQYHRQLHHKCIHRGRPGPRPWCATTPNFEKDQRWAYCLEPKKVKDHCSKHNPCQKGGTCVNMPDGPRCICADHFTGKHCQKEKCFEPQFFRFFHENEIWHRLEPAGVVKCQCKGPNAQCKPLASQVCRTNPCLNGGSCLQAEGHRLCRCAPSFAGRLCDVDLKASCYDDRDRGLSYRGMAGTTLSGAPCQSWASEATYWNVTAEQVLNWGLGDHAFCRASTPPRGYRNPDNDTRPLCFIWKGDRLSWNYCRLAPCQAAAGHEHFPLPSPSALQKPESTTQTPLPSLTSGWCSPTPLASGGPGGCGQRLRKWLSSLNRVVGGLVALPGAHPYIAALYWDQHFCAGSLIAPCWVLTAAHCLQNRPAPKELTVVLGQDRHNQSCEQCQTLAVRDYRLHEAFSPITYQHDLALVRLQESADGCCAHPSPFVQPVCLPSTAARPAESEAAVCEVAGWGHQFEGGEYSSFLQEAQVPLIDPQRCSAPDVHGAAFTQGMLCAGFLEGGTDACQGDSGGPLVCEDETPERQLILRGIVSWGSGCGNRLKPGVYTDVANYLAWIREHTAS
The experiment is described as above.
From the text: as §1

A further experiment deals with T4, rhesus macaque FXII (rhesus macaque, UniProt F7FY72 20-615).
T4 construct: Plasma protein
T4 sequence: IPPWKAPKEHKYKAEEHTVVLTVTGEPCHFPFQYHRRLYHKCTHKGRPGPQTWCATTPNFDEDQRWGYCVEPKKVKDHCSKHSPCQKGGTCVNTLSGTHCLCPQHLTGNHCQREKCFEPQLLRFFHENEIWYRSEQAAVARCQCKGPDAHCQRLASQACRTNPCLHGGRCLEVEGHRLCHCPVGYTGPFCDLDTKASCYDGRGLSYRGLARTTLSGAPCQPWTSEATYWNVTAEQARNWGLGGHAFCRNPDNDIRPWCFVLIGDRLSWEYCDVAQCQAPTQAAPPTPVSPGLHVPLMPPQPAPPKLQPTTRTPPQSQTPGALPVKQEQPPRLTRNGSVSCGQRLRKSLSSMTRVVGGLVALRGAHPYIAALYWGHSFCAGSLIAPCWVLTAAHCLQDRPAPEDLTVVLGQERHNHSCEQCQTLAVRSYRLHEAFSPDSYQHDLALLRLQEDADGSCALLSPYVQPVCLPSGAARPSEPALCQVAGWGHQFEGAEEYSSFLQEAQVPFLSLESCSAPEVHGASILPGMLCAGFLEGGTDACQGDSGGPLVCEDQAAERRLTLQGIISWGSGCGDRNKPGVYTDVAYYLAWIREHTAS
The experiment is described as above.
From the text: as §1

The record followed here is patent publication US20220089776A1 (OREGON HEALTH AND SCIENCE UNIVERSITY, published 2022).

B1: mouse monoclonal antibody 5C12 (antibody, mouse IgG1, kappa, V domains shown)
VH: DVQLQESGPDLVKPSQSLSLTCTVTGYSITSGYSWHWIRQFPGNNLEWMGYIQYSGNTNSNPSLKSRISITRDTSKNQFFLHLNSVTTEDTATYYCARWGSFDYWGQGTTLTVSS
VL: QIVLTQSPAIMSASPGEKVTMTCSASSSVNYMHWYQQKSGTSPKRWIYDTSKLASGVPARFSGSGSGTSYSLTISSMEAGDAATYYCQQWSGNPPTFGGGTILEIKR
notes: Purified from hybridoma; also called AB053; 5C12 MAb
Take B1: the “IC50 (read off the curve): FXIIa amidolytic activity after activation of 40 nM FXII with 1 µg/ml dextran sulfate” value in experiment [1] was around 6 nM. Besides, the binding result with pig FXII, in the experiment with cattle FXII and with rhesus macaque FXII was “no binding” in each case.
